Experimental findings from patent US20120093811A1 (published 2012) are described below.

For assay [1], the target named is T1, Source 1 VEGF-D, mature dimeric recombinant human VEGF-D (CSIRO) (human, UniProt O43915 89-205).
T1 construct: Whole entry named; also called Source 1 VEGF-D dimer; VEGF-D dimer
T1 sequence: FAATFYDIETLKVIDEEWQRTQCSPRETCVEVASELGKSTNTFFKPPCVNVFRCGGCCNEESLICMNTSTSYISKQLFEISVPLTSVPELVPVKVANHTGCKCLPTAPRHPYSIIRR
In words: SPR Protocol B, KD against that of Ig-1A. How it is done: (§1) Protocol B: In the second assay format, Protocol B, the orientation of the IgGs and the VEGF-D antigen was reversed relative to Protocol A. The Source 1 VEGF-D dimer was immobilized directly on the chip surface by amine coupling and the murine anti-VEGF-D monoclonal antibody, Ig-1A or IgG variants flowed over this surface as analytes at concentrations of 4 nM, 1.33 nM, and 0.44 nM. This protocol allowed avidity effects to be controlled by reducing the density of dimeric VEGF-D immobilized on the chip and in effect reduce the bivalent binding properties of the system being analyzed.
(§2) All four flow cells on a CM5 chip were activated for 7 min at 25° C. using a mixture of NHS.EDC. Flow cell one was used as an unmodified (activated and blocked) reference against flow cells 2-4. Source 1 VEGF-D dimer was diluted to 1-3 μg/ml into 10 mM sodium acetate, pH 4, and injected over three surfaces for different lengths of time to achieve low ligand densities of 10, 15 and 20 RU to minimize avidity effects of the IgG. All surfaces were blocked for 7 min with ethanolamine (1M, pH 8.2) and pre-conditioned using five 10 s injections of 100 mM H₃PO₄; 1M NaCl. Immobilization steps were carried out at a flow rate of 30 μl/min using HBS-N running buffer.
(§3) All IgG binding experiments were performed at 25° C. using HBS-EP+ running buffer. Analytes (murine reference anti-VEGF-D monoclonal antibody and humanized variants) were injected for 200 s at a flow rate of 70 μl/min and dissociation monitored for 250 s. The antigen surfaces were regenerated with a 10 s pulse of 100 mM H₃PO₄; 1M NaCl. Analyte concentrations used for murine and humanized variants were 4 nM, 1.33 nM, and 0.44 nM. Data was processed using the reference surface and double referencing from blank injections. Binding constants for the IgG/antigen interactions were determined from the three antigen surfaces globally fitted to a 1:1 interaction model. Refractive index parameter was constant (RI=0).

In assay [2] the target is T1, Source 1 VEGF-D, mature dimeric …. In words: cell-based or functional assay.
In assay [3] the target is T2, Source 2 VEGF-D, purified recombinant human VEGF-D monomer (R&D Systems, Catalog Number 622-VD/CF) (human, UniProt O43915 93-201).
T2 sequence: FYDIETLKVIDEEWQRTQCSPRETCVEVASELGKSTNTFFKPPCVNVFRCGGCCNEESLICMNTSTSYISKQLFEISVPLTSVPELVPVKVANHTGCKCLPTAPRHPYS
In words: cell-based or functional assay.

The target in assay [4] is T1, Source 1 VEGF-D, mature dimeric …. The experiment in a line: SPR Protocol A: IgG captured by anti-human Fc, VEGF-D dimer as analyte. The procedure:
(§4) Protocol A: The first assay format, Protocol A, used an assay system where IgGs were captured on a biosensor chip surface using an anti-human IgG (Fc) antibody and the Source 1 VEGF-D dimer run over the chip as the analyte in solution. This ensured that all IgG molecules were presented to the antigen in an active orientation.
(§5) The SPR protocol was slightly modified to compensate for the dimeric nature of the VEGF-D. Ig-1A or IgG variants were analyzed using an anti-human capture kit as described for Anti-human IgG (Fc) capture above, except that 1000 RU of the IgG or IgG variant was captured on the anti-human chip surface. […] The kinetics generated using this approach are accurate within the experimental parameters set. This standard assay protocol is best suited to studying 1:1 interactions and thus, may not be ideal for analyzing binding between the IgG variants and the VEGF-D dimer. In light of this, Protocol B was also used.

For assay [5] the target is unchanged. The experiment in a line: SPR Protocol A, KD against that of Ig-1A. The procedure: as §4, §5
The target is the same in assay [6]. In words: SPR Protocol B: VEGF-D dimer amine-coupled, IgG as analyte. The procedure: as §1, §2, §3
The target of assay [7] is T3, VEGF-D (recombinant human; source not given) (human, UniProt O43915 89-205, limits assumed).
T3 construct: also used here as target of IC50 values averaged over Source 1 and Source 2; also called vascular endothelial growth factor-D
T3 sequence: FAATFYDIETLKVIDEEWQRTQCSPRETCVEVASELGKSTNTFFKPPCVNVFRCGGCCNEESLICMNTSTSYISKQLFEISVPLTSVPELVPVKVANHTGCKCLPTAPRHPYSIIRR
The experiment in a line: SPR (BIAcore), VEGF-D amine-coupled on CM5, purified scFv as analyte. The procedure: (§6) scFv variants were fully characterized using a BIAcore™ biosensor. All isolated scFv samples were purified as monomer peaks by anti-FLAG affinity chromatography followed by gel filtration chromatography. BIAcore™ analysis was performed by directly immobilizing VEGF-D on a CM5 surface using amine coupling, with the scFv run as the analyte. Analysis of binding was carried out using the BIAevaluation kinetic analysis software. All repeats were separate protein expressions and were performed at 25° C.
(§7) Clones F61, A63, AR7, AW61, CJ37, DI126 and DA18 were produced in large-scale expression cultures and purified by anti-FLAG affinity chromatography and gel filtration. The binding kinetics against VEGF-D were then measured using a BIAcore™ biosensor as described previously.

Assay [8] concerns the target T3, VEGF-D (recombinant human; source not …). In words: SPR (BIAcore) off-rate ranking of scFv clones. How it is done:
Screening based on scFv binding properties involved surface plasmon resonance (SPR) measurements with a BIAcore™ biosensor. scFv variants were expressed in 200 μL E. coli cultures and the supernatants used to generate crude off-rate only kinetics, which were assessed “relative” to 1A, or other variants.
In general terms: In SPR one partner is held on a chip, and binding of the other changes the refractive index at the surface.

Assay [9] has the same target. The experiment in a line: SPR (BIAcore), KD against that of scFv 1A. The procedure:
as §6, §7

One may read the Kd as the equilibrium constant for the complex coming apart. As usually defined, the koff is a measure of how fast the partners let go of each other. As a reminder, the kon is a measure of how fast the partners come together.

B1: humanized IgG antibody derived from clone HH41 (antibody, V domains shown)
VH: QVQLVQSGAEVKQPGASVKVSCKASGYTFTGYNMYWVRQAPGQGLEWMGYIDPYNGDTTYNQKFKGRVTMTTDTSTSTAYMKLRSLRSDDTAVYYCARTSYYGGMDYWGRGTLVTVAS
VL: DIVMTQTPLSSPVTLGQPASISCRSSQSLVHGNGNTYLHWLQQRPGQPPRLLIYKVSNRFSGVPDRFSGSGAGTDFTLKISRVEAEDVGVYYCSQSTHVPRTFGQGTKLEIKR
notes: IgG; also called HH41#1; HH41#2
With B1, the entries for the “Fold-improvement with respect to Ig-1A” value in assay [1] and in assay [5] were 4.9 fold and 1.9 fold, respectively. Further, the figures for the “rank in the VEGFR-3-Ba/F3 bioassay” value in assay [2] and in [3] were 8 rank and 6 rank, respectively. The Kd in assay [4] turned out to be 0.364 nM; in assay [6], 0.36 nM. The values for the koff in [4] and in [6] were 0.00019 s⁻¹ and 0.0017 s⁻¹, respectively. In addition, the kon in assay [4] amounted to 530000 M⁻¹ s⁻¹; in [6], 4.7e+06 M⁻¹ s⁻¹.

B2: humanized IgG antibody derived from clone HH69 (antibody, V domains shown)
VH: QVQLVQSGAKVKQPGASVKASCKASGYTFTGYNMYWVRQAPGQGLEWMGYIDPYSGDTTYNQKFKGRVTMTTDTSTSTAYMELRSLRSDDTAVYYCARTSYYGGMDYWGRGTLVTVAS
VL: DIVMTQTPLSGPVTLGQPASISCRSSQSLVHSNGNTYLHWLQQRPGQPPRLLIYKVSNRFSGVPDRFSGSGAGTDFTLKISRVEAEDVGVYYCSQSTHVPRTFGRGTKLEIKR
notes: IgG
B2: the “Fold-improvement with respect to Ig-1A” value in [1] was found to be 5.3 fold; in assay [5] it was 3.5 fold. Moreover, the “rank in the VEGFR-3-Ba/F3 bioassay” value in assay [2] and in [3] was 3 rank in each case. Further, the Kd worked out at 0.201 nM in assay [4] and 0.33 nM in [6]. The koff came to 7.7e-05 s⁻¹ in [4] and 0.001 s⁻¹ in [6]. The figures for the kon in [4] and in assay [6] were 390000 M⁻¹ s⁻¹ and 3e+06 M⁻¹ s⁻¹, respectively.

B3: scFv clone A63 (scFv)
scFv: QVQLVQSGAKVKQPGASVKASCKASGYTFTGYNMYWVRQAPGQGLEWMGYIDPYNGDTTYNQKFKGRVTMTTDTSTSTAYMELRSLRSDDTAVYYCARTSYYGGMDYWGRGTLVTVASGGGASGGGGSGGGGSDIVMTQTPLSSPVTLGQPASISCRSSQSLVHSNGNTYLHWLQQRPGQPPRLLIYKVSNRFSGVPDRFSGSGAGTDFTLKISRVEAEDVGVYYCSQSTHVPRTFGQGTKLEIKR
Take B3: in assay [7], the Kd is 4.83 nM, the koff turned out to be 0.0072 s⁻¹ and the kon amounted to 1.49e+06 M⁻¹ s⁻¹. In assay [8], the koff worked out at 0.00327 s⁻¹. Also, the “Fold-improvement with respect to clone 1A” value in assay [9] turned out to be 2.7 fold.

B4: scFv clone AR74 (scFv)
scFv: QVQLVQSGAEVKQPGASVKVSCKASGYTFTGYNMYWVRQAPGQGLEWMGYIDPYNGDTTYNQKFKGRVTMTTGTSTSTAYMKLRSLRSDDTAVYYCARASYYGGMDYWGRGTLVTVASGGGASGGGGSGGGGSDIVMTQTPLSSPVTLGQPASISCRSSQSLVHSNGNTYLHWLQQRPGQPPRLLIYKVSNRFSGVPDRFSGSGAGTDFTLKISRVEAEDVGVYYCSQSTHVPRTFGQGTKLEIKR
Regarding B4, in [7], the Kd amounted to 2.12 nM, the koff came to 0.00379 s⁻¹ and the kon was 1.79e+06 M⁻¹ s⁻¹. In assay [8], the koff is 0.00167 s⁻¹. In assay [9], the “Fold-improvement with respect to clone 1A” value was found to be 6.2 fold.

B5: scFv clone CJ37 (scFv)
scFv: QVQLVQSGAEVKQPGASVKVSCKASGYTFTGYNMYWVRQAPGQGLEWMGYIDPYNGDTTYNQKFKGRVTMTTDTSTSTAYMKLRSLRSDDTAVYYCARTSYYGGMDYWGRGTLVTVASGGGASGGGGSGGGGSDIVMTQTPLSSPVTLGQPASISCRSSQSLVHSNGNTYLHWLQQRPGQPPRLLIYKVSNRFSGVPDRFSGSGAGTDFTLKISRVEAEDVGVYYCSQSTHVPRTFGRGTKLEIKR
In the case of B5, in assay [7], the Kd turned out to be 3.55 nM, the koff amounted to 0.00995 s⁻¹ and the kon stood at 2.81e+06 M⁻¹ s⁻¹. Moreover, the koff in assay [8] came to 0.00732 s⁻¹. For the same molecule, the “Fold-improvement with respect to clone 1A” value in assay [9] was 3.7 fold.

B6: scFv clone AW61 (scFv)
scFv: QVQLVQSGAEVKQPGASVKVSCKASGYTFTGYNMYWVRQAPGQGLEWMGYIDPYNGDTTYNQKFKGRATMTTDTSTSTAYMKLRSLRSDDTAVYYCARTSYYGGMDYWGRGTLVTVASGGGASGGGGSGGGGSDIVMTQTPLSSPVTLGQPASISCRSSQSLVHSNGNTYLHWLQQRPGQPPRLLIYKVSNRFSGVPDRFSGSGAGTDFTLKISRVEAEDVGVYYCSQSTHVPRTFGQGTKLEIKR
B6: in assay [7], the dissociation constant Kd was 4.23 nM, the koff turned out to be 0.00828 s⁻¹ and the kon was found to be 1.96e+06 M⁻¹ s⁻¹. For the same molecule, in [8], the koff amounted to 0.00222 s⁻¹. The “Fold-improvement with respect to clone 1A” value in assay [9] worked out at 3.1 fold.

B7: scFv clone DI26 (scFv)
scFv: QVQLVQSGAKVKQPGASVKASCKASGYTFTGYNMYWVRQAPGQGLEWMGYIDPYSGDTTYNQKFKGRVTMTTDTSTSTAYMELRSLRSDDTAVYYCARTSYYGGMDYWGRGTLVTVASGGGASGGGGSGGGGSDIVMTQTPLSSPVTLGQPASISCRSSQSLVHSNGNTYLHWLQQRPGQPPRLLIYKVSNRFSGVPDRFSGSGAGTDFTLKISRVEAEDVGVYYCSQSTHVPRTFGQGTKLEIKR
notes: also called DI126
For the molecule B7, in assay [7], the Kd was 3.12 nM, the koff stood at 0.0093 s⁻¹ and the kon was found to be 2.98e+06 M⁻¹ s⁻¹. In addition, the koff in assay [8] was determined as 0.00361 s⁻¹. For the same molecule, the “Fold-improvement with respect to clone 1A” value in assay [9] is 4.2 fold.

B8: scFv clone F61 (scFv)
scFv: QVQLVQSGAEVKQPGASVKVSCKASGYTFTGYNMYWVRQAPGQGLEWMGYIDPYNGDTTYNQKFKGRVTMTTDTSTSTAYMKLRSLRSDDTAVYYCARTSYYGGMDYWGRGTLVTVASGGGASGGGGSGGGGSDIVMTQTPLSSPVTLGQPASISCRSSQSLVHSNGNTYLHWLQQRPGQPPRLLIYKVSNRFSGVPDRFSGSGAGTDFTLKISRVEAEDVGVYYCSQSTHVPRTFGQGTKLEIKR
On to B8, for which, in [7], the Kd stood at 3.31 nM, the off-rate constant (koff) is 0.00899 s⁻¹ and the kon was found to be 2.72e+06 M⁻¹ s⁻¹. Also, in [8], the off-rate (koff) turned out to be 0.00335 s⁻¹. The “Fold-improvement with respect to clone 1A” value in assay [9] was 4 fold.
